From patent US20170204174A1 (published 2017)
Residue numbers refer to the chain shown, from its start. Each block holds one molecule with its values, some of them ahead of it.

Experiments:
[1] = target: recombinant mature human GDF-15 protein (SEQ ID No: 8) (human) (UniProt Q99988); test: Surface Acoustic Wave (SAW) gold chip biosensor
[2] = target: T1, recombinant mature human GDF-15 protein (SEQ ID No: 8) (human, UniProt Q99988 197-308); test: Surface Acoustic Wave (SAW) gold chip biosensor
T1 construct: also called recombinant human GDF-15; recombinant GDF-15
T1 sequence: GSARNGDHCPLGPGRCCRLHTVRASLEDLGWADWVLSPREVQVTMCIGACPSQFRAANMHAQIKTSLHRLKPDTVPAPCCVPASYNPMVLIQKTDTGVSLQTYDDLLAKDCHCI

[3] = target: T1, recombinant mature human GDF-15 protein …; test: Surface Acoustic Wave (SAW) gold chip biosensor; antibody as serum-free CHO culture supernatant
[4] = target: T2, recombinant mature human GDF-15 protein derived from expression in E. coli (human, UniProt Q99988 195-308); test: SPR (ProteOn XPR36), E. coli GDF-15 immobilised, antibody as analyte
T2 construct: mature; also called GDF-15 derived from E. coli expression
T2 sequence (looked up): T1 sequence with G1A, S2R
Source text: (§1) For preparing the biosensors recombinant mature human GDF-15 protein was immobilized on flow cells 1 and 2. On one flow cell recombinant GDF-15 derived from Baculvirus-transfected insect cells (HighFive insect cells) and on the other recombinant protein derived from expression in E. coli was used. The GLC sensor chip was activated using Sulfo-NHS (N-Hydroxysulfosuccinimide) and EDC (1-Ethyl-3-[3-dimethylaminopropyl]carbodiimide hydrochloride) (Bio-Rae ProteOn™ Amine Coupling Kit) according to the manufacturer's recommendation, the sensor surface was subsequently loaded with the proteins up to a density of about 600 RU (1 Ru=1 pg mm⁻²). The non-reacted coupling groups were then quenched by perfusion with 1M ethanolamine pH 8.5 and the biosensor was equilibrated by perfusing the chip with running buffer ([…], 150 mM NaCl, 3.4 mM EDTA, 0.005% Tween®20, pH 7.4, referred to as HBS150). As controls two flow cells were used, one empty with no protein coupled and one coupled with an non-physiological protein partner (human Interleukin-5), which was immobilized using the same coupling chemistry and the same coupling density. […] The resulting sensogram was analyzed using the software ProteOn Manager version 3.0. […]

human Interleukin-5 = human Interleukin-5 (human, UniProt P05113 20-134); test: SPR (ProteOn XPR36), IL-5 immobilised, antibody as analyte
Source text: as §1

[5] = target: T1, recombinant mature human GDF-15 protein …; test: SPR (ProteOn XPR36), KD=koff/kon, insect-cell GDF-15 immobilised
Source text: as §1

[6] = target: T1, recombinant mature human GDF-15 protein …; test: Surface Acoustic Wave (SAW) gold chip biosensor; remark: listed apart in the source
[7] = target: T1, recombinant mature human GDF-15 protein …; test: SPR (ProteOn XPR36), insect-cell GDF-15 immobilised, antibody as analyte, 1:1 Langmuir, 25° C.
Source text: as §1

Chain of human Interleukin-5 (P05113 20-134 limits assumed): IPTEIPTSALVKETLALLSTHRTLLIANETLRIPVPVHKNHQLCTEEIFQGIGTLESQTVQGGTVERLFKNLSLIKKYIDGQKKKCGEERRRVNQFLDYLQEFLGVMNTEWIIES

Kd [1]: 1120 nM
Molecule: Rituxumab (control antibody)

fold higher affinity than the murine B1-23 antibody [2]: ~5 fold
Kd [3]: 5.62 nM
B1: H1L5 humanized B1-23 anti-GDF-15 antibody (antibody, human IgG1, V domains shown)
VH: QITLKESGPTLVKPTQTLTLTCTFSGFSLSTSGMGVSWIRQPPGKGLEWLAHIYWDDDKRYNPTLKSRLTITKDPSKNQVVLTMTNMDPVDTATYYCARSSYGAMDYWGQGTLVTVSS
VL: DIVLTQSPSFLSASVGDRVTITCKASQNVGTNVAWFQQKPGKSPKALIYSASYRYSGVPDRFTGSGSGTEFTLTISSLQPEDFAAYFCQQYNNFPYTFGGGTKLEIKR
notes: Human IgG1 (trastuzumab backbone); also called H1L5 anti-GDF-15 antibody; humanized B1-23-H1L5 antibody

factor by which the affinity differs from that for insect-cell GDF-15 [4]: < 2 fold
Kd [5]: ~0.79 nM
Kd [6]: 28.8 nM
koff [7]: 0.00043 s⁻¹
kon [7]: 540000 M⁻¹ s⁻¹
B2: murine monoclonal anti-human GDF-15 antibody mAb-B1-23 (antibody, V domains shown)
VH: QVKLQQSGPGILQSSQTLSLTCSFSGFSLSTSGMGVSWIRQPSGKGLEWLAHIYWDDDKRYNPTLKSRLTISKDPSRNQVFLKITSVDTADTATYYCARSSYGAMDYWGQGTSVTVSS
VL: DIVLTQSPKFMSTSVGDRVSVTCKASQNVGTNVAWFLQKPGQSPKALIYSASYRYSGVPDRFTGSGSGTDFTLTISNVQSEDLAEYFCQQYNNFPYTFGGGTKLEIKR
notes: also called anti-human GDF-15 mAb-B1-23; B1-23 anti-GDF-15 antibody (murine, IgG2a)
binding result (human Interleukin-5): no binding (tested: 0.4, 0.8, 3, 12, 49 and 98 nM)

fold higher affinity than the murine B1-23 antibody [2]: ~2 fold
Kd [6]: 14 nM
B3: chimeric anti-human GDF-15 mAb-B1-23 antibody (antibody, human IgG1, kappa, V domains shown)
VH: B2 VH
VL: B2 VL
notes: Murine variable domains, constant domains of a human IgG1 (trastuzumab backbone); also called Chimeric B1-23 anti-GDF-15 antibody; chimeric B1-23
